Assay results: US20200207835A1, “SRCP1-BASED THERAPY FOR DISEASES ASSOCIATED WITH PROTEIN AGGREGATION” (THE MEDICAL COLLEGE OF WISCONSIN, INC., priority 2017, published 2020)

Assays:
^GFPHtt^ex1Q74 = ^GFPHtt^ex1Q74 (Homo sapiens, UniProt P42858); assay: GFPHttex1Q74 puncta in iPSC-derived neurons; assay type: cell-based; parameters: encoding pEGFP huntingtin exon-1 with 23 (^GFPHtt^ex1Q23) or 74 (^GFPHtt^ex1Q74) glutamines; host or cells: human iPSC-derived neurons (mixed cultures with astrocytes); settings: co-expression
Procedure: iPSC transfections were performed with mixed cultures of astrocytes and neurons adhered to matrigel-coated coverslips, seeded at 2.6×10^4 cells/cm^2. iPSC transfections were performed using Lipofectamine 2000 according to the manufacturer's instructions and recommended DNA concentrations for a 24-well transfection.
Plated iPSC derived cultures of astrocytes and neurons were fixed with 4% paraformaldehyde in PBS for 20 minutes at room temperature, 3-5 days after transfection. Cells were permeabilized and blocked prior to antibody labeling. Nuclei were labeled with Hoechst nuclear dye. Primary antibodies used were rabbit anti-Tuj1 (Covance MRB-435P), chicken anti-Tuj1(Gene Tex, GTX85469) and mouse anti-GFAP (Cell Signaling, 3670). Images were taken using an upright Nikon fluorescent microscope with a 40× objective. The number of neural cells with GFP positive puncta was quantified using NIS Elements object quantification tool (Nikon) and neurite length was measured using NIS Elements length measurement tool (Nikon).

HEK293 cells = assay: Cell viability assay (CellTiter-Glo); assay type: cell-based, human; settings: HEK293 transfected with RFPSRCP1 alone
Procedure: HEK293 cells were transfected as described with RFP or ^RFPSRCP1. Following transfections, cells were diluted to 500,000 cells/mL with 50,000 cells plated per well in duplicate from each transfection reaction in a 96-well plate. Serial dilutions were then performed down each column of the plate down to 390 cells per well. Cells were cultured for an additional 24 hours, then lysed using the CellTiter-Glo Kit (Promega). Luminescence was quantified between 565-700 nm wavelengths on a Spark microplate reader (Tecan) to determine cell viability.

^GFPHtt^ex1Q23 = molecular target: T1, ^GFPHtt^ex1Q23 (Homo sapiens, UniProt P42858, DUP37-38); assay: GFPHttex1Q23 levels in transfected HEK293 cells (western blot); assay type: cell-based; settings: HEK293, 48 hours post-transfection
T1 construct: encoding pEGFP huntingtin exon-1 with 23 (^GFPHtt^ex1Q23) or 74 (^GFPHtt^ex1Q74) glutamines; host or cells: HEK293
Procedure: Transfections were performed with Lipofectamine 2000 (Invitrogen by ThermoFisher Scientific) and adapted from the manufacturer's instructions. Briefly, cells were plated on either 12-well or 6-well plates and transfected at 50-70% confluency. For 12-well transfections, 0.833 μg of DNA per well was mixed with 50 μl of OptiMEM (Gibco by Life Technologies) media and incubated for 5 minutes at room temperature. Lipofectamine 2000 in a 2:1, μl of lipofectamine: μg DNA ratio was mixed with 50 μl of OptiMEM media and incubated for 5 minutes at room temperature. DNA and Lipofectamine were mixed and incubated for 15 minutes at room temperature. Fresh media was added to cells prior to the addition of DNA and lipofectamine. For 6-well transfections, the same protocol is followed except that 1.25 μg of DNA per well and 100 μl of OptiMEM for dilution was used. Media was changed 24 hours post-transfection and cells were harvested 48 hours post-transfection. Prior to harvesting, HEK293 cells were washed three times with ice-cold 1×PBS. Samples were then lysed with either 150 μl of ice-cold NETN (with protease inhibitor) or 1× Laemmli Buffer and sonicated twice for 5-8 seconds.
Following sonication, lysates were subjected to BCA protein assay (ThermoFisher Scientific) and prepared for loading by the addition of 4× laemmli buffer and boiling for four minutes. […]

[1] = test system: wild-type or mutant α-synuclein; assay: α-synuclein levels in HEK293 cells (western blot); assay type: cell-based, human; settings: HEK293, 48 hours, overexpression of SRCP1
Procedure: HEK 293 cells were transfected with either wild-type or mutant α-synuclein in the presence or absence of SRCP1. Cells were collected 48 hours later and analyzed by SDS-PAGE and western blot.

Chain of ^GFPHtt^ex1Q74 (P42858 with tags, fused parts or gaps): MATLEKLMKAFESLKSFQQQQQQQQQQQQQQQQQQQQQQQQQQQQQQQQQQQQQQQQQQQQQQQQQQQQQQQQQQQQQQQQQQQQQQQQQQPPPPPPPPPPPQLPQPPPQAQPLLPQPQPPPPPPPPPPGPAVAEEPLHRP
T1 sequence (P42858 with tags, fused parts or gaps DUP37-38): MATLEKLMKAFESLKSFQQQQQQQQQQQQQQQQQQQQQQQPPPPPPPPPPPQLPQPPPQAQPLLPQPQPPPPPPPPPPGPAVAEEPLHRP

B1: SRCP1: Dictyostelium discoideum serine-rich chaperone protein 1 (SEQ ID NO:2), expressed in cells as RFP-tagged construct (protein)
chain: MTILSTFTSFSNPPKLNKSSFSSSTGSSLSMGSNSFAWGGGWGGFGGPKGGSFNVDIAGNLIWGVYGFIRGGVGLVKWRGLQKGCKQP
modifications: RFP tag; Dictyostelium discoideum AX4
- GFPHttex1Q74 puncta (^GFPHtt^ex1Q74): dramatic decrease in ^GFPHtt^ex1Q74 puncta
- toxicity (viability by CellTiter-Glo) (HEK293 cells): did not display any toxicity
- levels of GFPHttex1Q23 (^GFPHtt^ex1Q23): did not alter the levels of
- α-synuclein levels [1]: results in a reduction of α-synuclein
